Measured values published in PMC6783313 (Nature structural & molecular biology, 2019).

B1: ClpP2(S98A) from Listeria monocytogenes (natural protein)
chain: not shown
B2: ClpX(E183Q) from Listeria monocytogenes (natural protein)
chain: not shown

Legend:
cryo-EM structure = target: the molecule itself; experiment: cryo-EM structure
[1] = target: B2; experiment: HDX-MS

B1
stoichiometry N (cryo-EM structure): 7
binding result [1]: binds

B2
stoichiometry N (cryo-EM structure): 6
